Substitutions are numbered along the chain they refer to. Names and notes keep the numbering of the source.
B1: anti-ANGPTL3/8 complex Ab having a LC of SEQ ID NO:5 and a HC of SEQ ID NO:6 (antibody, human IgG4 S228P, kappa, F234A L235A, V domains shown)
VH: QVTLKESGPTLVKPTQTLTLTCTFSGFSLSISGVGVGWIRQPPGKALEWLALIYRNDDKRYSPSLKSRLTITKDTSKNQVVLTLTNMDPVDTATYYCARTYSSGWYGNWFDPWGQGTLVTVSS
VL: DIVMTQTPLSLPVTPGEPASISCRSSQSLLDSDDGNTYLDWYLQKPGQSPQLLIYMLSYRASGVPDRFSGSGSGTDFTLKISRVEAEDVGIYYCMQRIEFPLTFGGGTKVEIKR
notes: In the ELISA assays tested as IgG from CHO supernatants; also called the Ab
B2: Ab with LC variant having a E99Q mutation (SEQ ID NO:25) and a HC of SEQ ID NO:6 (antibody, human IgG4 S228P, kappa, F234A L235A, V domains shown)
VH: B1 VH
VL: B1 VL with E99Q
notes: also called E99Q Variant Ab; E99Q Ab
B3: Ab with LC variant having a D33A mutation (SEQ ID NO:22) and a HC of SEQ ID NO:6 (antibody, human IgG4 S228P, kappa, F234A L235A, V domains shown)
VH: B1 VH
VL: B1 VL with D33A
notes: also called D33A Variant Ab; D33A Ab
B4: Ab with LC variant having a D31S mutation (SEQ ID NO:21) and a HC of SEQ ID NO:6 (antibody, human IgG4 S228P, kappa, F234A L235A, V domains shown)
VH: B1 VH
VL: B1 VL with D31S
notes: also called D31S Variant Ab; D31S Ab

The binders below were run against T1, human ANGPTL3 (human, UniProt Q9Y5C1 17-460) (assay: single point ELISA; IgG captured by anti-human Fc; biotinylated antigen at 25 nM).
T1 construct: Biotinylated in the ELISA assays; also called hANGPTL3; free ANGPTL3
T1 sequence: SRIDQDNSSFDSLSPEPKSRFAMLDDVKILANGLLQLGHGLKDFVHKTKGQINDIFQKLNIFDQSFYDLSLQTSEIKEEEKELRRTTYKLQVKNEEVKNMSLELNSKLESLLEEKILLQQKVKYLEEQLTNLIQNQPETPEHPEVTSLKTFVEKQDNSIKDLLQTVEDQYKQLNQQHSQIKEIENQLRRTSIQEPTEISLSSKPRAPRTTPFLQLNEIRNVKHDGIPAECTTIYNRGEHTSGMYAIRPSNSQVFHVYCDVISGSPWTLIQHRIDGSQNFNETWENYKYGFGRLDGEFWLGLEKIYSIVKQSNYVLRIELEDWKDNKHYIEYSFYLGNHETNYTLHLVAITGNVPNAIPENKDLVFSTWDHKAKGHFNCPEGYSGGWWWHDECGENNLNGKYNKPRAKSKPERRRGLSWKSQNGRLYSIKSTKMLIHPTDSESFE
Procedure: (§1) Single Point ELISA (SPE) Assay: Ab binding selectivity to either the ANGPTL3/8 complex, free ANGPTL3 or free ANGPTL8 is initially verified using standard ELISA assays in a single point format. […] IgG secreted into supernatants after expression in CHO cells are then captured to the assay plate. Biotinylated antigen is added at a concentration of 25 nM to allow for Ab/antigen binding. Ab/antigen complexes are detected after adding alkaline phosphatase-conjugated neutravidin and alkaline phosphatase substrate, and subsequent measurement of the optical density at 560 nm. Positive binding is determined by a signal greater than 3 fold over the non-binding background signal.

Binder | OD at 560 nm [OD 560 nm]
B1 | 0.074
B2 | 0.083
B3 | 0.076
B4 | 0.058

Each binder was assayed against T2, human ANGPTL3/8 complex (human, UniProt Q9Y5C1 17-460; Q6UXH0 22-198, limits assumed) in the same assay as above.
T2 construct: also called hANGPTL3/8 complex; ANGTPL3/8 complex
T2 sequence 1: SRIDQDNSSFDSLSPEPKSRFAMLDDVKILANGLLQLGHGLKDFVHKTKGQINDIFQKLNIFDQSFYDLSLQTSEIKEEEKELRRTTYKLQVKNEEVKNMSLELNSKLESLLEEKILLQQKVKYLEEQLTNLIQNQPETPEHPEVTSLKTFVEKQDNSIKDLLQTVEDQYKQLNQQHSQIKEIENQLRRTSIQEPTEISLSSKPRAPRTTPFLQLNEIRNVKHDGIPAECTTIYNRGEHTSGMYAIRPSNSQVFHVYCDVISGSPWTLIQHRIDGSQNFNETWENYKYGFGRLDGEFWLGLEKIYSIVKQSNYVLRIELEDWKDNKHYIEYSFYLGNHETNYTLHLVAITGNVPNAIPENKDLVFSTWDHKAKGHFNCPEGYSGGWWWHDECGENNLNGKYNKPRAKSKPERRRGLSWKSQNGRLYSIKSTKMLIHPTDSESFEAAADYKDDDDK
T2 sequence 2: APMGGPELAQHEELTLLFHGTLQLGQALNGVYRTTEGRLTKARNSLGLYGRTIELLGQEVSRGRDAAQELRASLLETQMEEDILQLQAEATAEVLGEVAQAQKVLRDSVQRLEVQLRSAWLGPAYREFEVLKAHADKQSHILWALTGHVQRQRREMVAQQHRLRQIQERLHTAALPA
Procedure: as §1

Binder | OD at 560 nm [OD 560 nm]
B1 | 2.3
B2 | 1.54
B3 | 0.898
B4 | 0.928

These binders were tested against T3, human ANGPTL8 (human, UniProt Q6UXH0 22-198) in the same assay as above.
T3 construct: Biotinylated in the ELISA assays; also called hANGPTL8; free ANGPTL8
T3 sequence: T2 sequence 2
Procedure: as §1

Binder | OD at 560 nm [OD 560 nm]
B1 | 0.087
B2 | 0.1
B3 | 0.118
B4 | 0.072

What follows are binders tested against T1, human ANGPTL3 (assay: ELISA; Ab captured by anti-human Fc; biotinylated antigen at 100 nM).
Procedure: (§2) ELISA Assay: Ab binding selectivity to either the ANGPTL3/8 complex, free ANGPTL3 or free ANGPTL8 is verified using standard ELISA assays. […] Ab from CHO supernatants after expression in CHO cells is then captured to the assay plate and results is an Ab concentration of 2 μg/ml. Biotinylated antigen (ANGPTL3, ANGPTL8 or ANGPTL3/8 complex) is added at varying concentrations by serial dilution to allow for Ab/antigen binding. Ab/antigen complexes are detected after the addition of alkaline phosphatase-conjugated neutravidin, and alkaline phosphatase substrate, and subsequent measurement of the optical density at 560 nm.

Binder | OD at 560 nm [OD 560 nm]
B1 | 0.081
B2 | 0.084
B3 | 0.082
B4 | 0.084

The binders below were run against T2, human ANGPTL3/8 complex in the same assay as above.
Procedure: as §2

Binder | OD at 560 nm [OD 560 nm]
B1 | 2.71
B2 | 2.47
B3 | 2.39
B4 | 2.47

The binders below were run against T3, human ANGPTL8 in the same assay as above.
Procedure: as §2

Binder | OD at 560 nm [OD 560 nm]
B1 | 0.072
B2 | 0.098
B3 | 0.078
B4 | 0.098

These binders were tested against T1, human ANGPTL3 (assay: ELISA; Ab captured by anti-human Fc; biotinylated antigen at 11.1 nM).
Procedure: as §2

Binder | OD at 560 nm [OD 560 nm]
B1 | 0.046
B2 | 0.062
B3 | 0.06
B4 | 0.062

The binders below were run against T2, human ANGPTL3/8 complex in the same assay as above.
Procedure: as §2

Binder | OD at 560 nm [OD 560 nm]
B1 | 1.71
B2 | 1.74
B3 | 1.64
B4 | 1.74

Each binder was assayed against T3, human ANGPTL8 in the same assay as above.
Procedure: as §2

Binder | OD at 560 nm [OD 560 nm]
B1 | 0.045
B2 | 0.062
B3 | 0.048
B4 | 0.062

These binders were tested against T2, human ANGPTL3/8 complex (assay: ELISA; Ab captured by anti-human Fc; biotinylated antigen at 3.70 nM).
Procedure: as §2

Binder | OD at 560 nm [OD 560 nm]
B1 | 1.04
B2 | 1.13
B3 | 1.04
B4 | 1.13

What follows are binders tested against T1, human ANGPTL3 (assay: ELISA; Ab captured by anti-human Fc; biotinylated antigen at 33.3 nM).
Procedure: as §2

Binder | OD at 560 nm [OD 560 nm]
B1 | 0.052
B2 | 0.069
B3 | 0.067
B4 | 0.069

Each binder was assayed against T2, human ANGPTL3/8 complex in the same assay as above.
Procedure: as §2

Binder | OD at 560 nm [OD 560 nm]
B1 | 2.41
B2 | 2.23
B3 | 2.18
B4 | 2.23

These binders were tested against T3, human ANGPTL8 in the same assay as above.
Procedure: as §2

Binder | OD at 560 nm [OD 560 nm]
B1 | 0.05
B2 | 0.063
B3 | 0.049
B4 | 0.063
